Results: article PMC8956578, “The inner side of yeast PCNA contributes to genome stability by mediating interactions with Rad18 and the replicative DNA polymerase δ” (Scientific Reports, 2022)

Target: the molecule itself
Assay: native gel or EMSA; increasing concentrations of purified wild-type and mutant PCNA on a 12% non-denaturing polyacrylamide gel

B1: wild-type PCNA (proliferating cell nuclear antigen), purified (natural protein, yeast, UniProt P15873 1-258, looked up)
chain: MLEAKFEEASLFKRIIDGFKDCVQLVNFQCKEDGIIAQAVDDSRVLLVSLEIGVEAFQEYRCDHPVTLGMDLTSLSKILRCGNNTDTLTLIADNTPDSIILLFEDTKKDRIAEYSLKLMDIDADFLKIEELQYDSTLSLPSSEFSKIVRDLSQLSDSINIMITKETIKFVADGDIGSGSVIIKPFVDMEHPETSIKLEMDQPVDLTFGAKYLLDIIKGSSLSDRVGIRLSSEAPALFQFDLKSGFLQFFLAPKFNDEE
notes: PCNA (POL30), yeast; open reading frame cloned in N-terminal fusion with GST; also called Pol30; source: protease deficient yeast strain BJ5464, galactose inducible promoter (pBJ842 backbone), purified
stoichiometry N: 3
